Data on ten proteins can be found in PMC7511445 (Journal of immunology (Baltimore, Md. : 1950), 2020).

B1: phosphorylated full-length human IRF-3 E388A (natural protein, UniProt Q14653 1-427, looked up)
chain: MGTPKPRILPWLVSQLDLGQLEGVAWVNKSRTRFRIPWKHGLRQDAQQEDFGIFQAWAEATGAYVPGRDKPDLPTWKRNFRSALNRKEGLRLAEDRSKDPHDPHKIYEFVNSGVGDFSQPDTSPDTNGGGSTSDTQEDILDELLGNMVLAPLPDPGPPSLAVAPEPCPQPLRSPSLDNPTPFPNLGPSENPLKRLLVPGEEWEFEVTAFYRGRQVFQQTISCPEGLRLVGSEVGDRTLPGWPVTLPDPGMSLTDRGVMSYVRHVLSCLGGGLALWRAGQWLWAQRLGHCHTYWAVSEELLPNSGHGPDGEVPKDKEGGVFDLGPFIVDLITFTEGSGRSPRYALWFCVGESWPQDQPWTKRLVMVKVVPTCLRALVEMARVGGASSLANTVDLHISNSHPLSLTSDQYKAYLQDLVEGMDFQGPGES
modifications: phosphorylated in vitro by GST-mTBK1; the phosphorylated residues are not listed
B2: phosphorylated full-length human IRF-3 K313A (natural protein, UniProt Q14653 1-427, looked up)
chain: MGTPKPRILPWLVSQLDLGQLEGVAWVNKSRTRFRIPWKHGLRQDAQQEDFGIFQAWAEATGAYVPGRDKPDLPTWKRNFRSALNRKEGLRLAEDRSKDPHDPHKIYEFVNSGVGDFSQPDTSPDTNGGGSTSDTQEDILDELLGNMVLAPLPDPGPPSLAVAPEPCPQPLRSPSLDNPTPFPNLGPSENPLKRLLVPGEEWEFEVTAFYRGRQVFQQTISCPEGLRLVGSEVGDRTLPGWPVTLPDPGMSLTDRGVMSYVRHVLSCLGGGLALWRAGQWLWAQRLGHCHTYWAVSEELLPNSGHGPDGEVPADKEGGVFDLGPFIVDLITFTEGSGRSPRYALWFCVGESWPQDQPWTKRLVMVKVVPTCLRALVEMARVGGASSLENTVDLHISNSHPLSLTSDQYKAYLQDLVEGMDFQGPGES
modifications: phosphorylated in vitro by GST-mTBK1; the phosphorylated residues are not listed
B3: phosphorylated full-length human IRF-3 R285A (natural protein, UniProt Q14653 1-427, looked up)
chain: MGTPKPRILPWLVSQLDLGQLEGVAWVNKSRTRFRIPWKHGLRQDAQQEDFGIFQAWAEATGAYVPGRDKPDLPTWKRNFRSALNRKEGLRLAEDRSKDPHDPHKIYEFVNSGVGDFSQPDTSPDTNGGGSTSDTQEDILDELLGNMVLAPLPDPGPPSLAVAPEPCPQPLRSPSLDNPTPFPNLGPSENPLKRLLVPGEEWEFEVTAFYRGRQVFQQTISCPEGLRLVGSEVGDRTLPGWPVTLPDPGMSLTDRGVMSYVRHVLSCLGGGLALWRAGQWLWAQALGHCHTYWAVSEELLPNSGHGPDGEVPKDKEGGVFDLGPFIVDLITFTEGSGRSPRYALWFCVGESWPQDQPWTKRLVMVKVVPTCLRALVEMARVGGASSLENTVDLHISNSHPLSLTSDQYKAYLQDLVEGMDFQGPGES
modifications: phosphorylated in vitro by GST-mTBK1; the phosphorylated residues are not listed
B4: phosphorylated full-length human IRF-3 H290A (natural protein, UniProt Q14653 1-427, looked up)
chain: MGTPKPRILPWLVSQLDLGQLEGVAWVNKSRTRFRIPWKHGLRQDAQQEDFGIFQAWAEATGAYVPGRDKPDLPTWKRNFRSALNRKEGLRLAEDRSKDPHDPHKIYEFVNSGVGDFSQPDTSPDTNGGGSTSDTQEDILDELLGNMVLAPLPDPGPPSLAVAPEPCPQPLRSPSLDNPTPFPNLGPSENPLKRLLVPGEEWEFEVTAFYRGRQVFQQTISCPEGLRLVGSEVGDRTLPGWPVTLPDPGMSLTDRGVMSYVRHVLSCLGGGLALWRAGQWLWAQRLGHCATYWAVSEELLPNSGHGPDGEVPKDKEGGVFDLGPFIVDLITFTEGSGRSPRYALWFCVGESWPQDQPWTKRLVMVKVVPTCLRALVEMARVGGASSLENTVDLHISNSHPLSLTSDQYKAYLQDLVEGMDFQGPGES
modifications: phosphorylated in vitro by GST-mTBK1; the phosphorylated residues are not listed
B5: phosphorylated full-length human IRF-3 S339A (natural protein, UniProt Q14653 1-427, looked up)
chain: MGTPKPRILPWLVSQLDLGQLEGVAWVNKSRTRFRIPWKHGLRQDAQQEDFGIFQAWAEATGAYVPGRDKPDLPTWKRNFRSALNRKEGLRLAEDRSKDPHDPHKIYEFVNSGVGDFSQPDTSPDTNGGGSTSDTQEDILDELLGNMVLAPLPDPGPPSLAVAPEPCPQPLRSPSLDNPTPFPNLGPSENPLKRLLVPGEEWEFEVTAFYRGRQVFQQTISCPEGLRLVGSEVGDRTLPGWPVTLPDPGMSLTDRGVMSYVRHVLSCLGGGLALWRAGQWLWAQRLGHCHTYWAVSEELLPNSGHGPDGEVPKDKEGGVFDLGPFIVDLITFTEGSGRAPRYALWFCVGESWPQDQPWTKRLVMVKVVPTCLRALVEMARVGGASSLENTVDLHISNSHPLSLTSDQYKAYLQDLVEGMDFQGPGES
modifications: phosphorylated in vitro by GST-mTBK1; the phosphorylated residues are not listed
B6: phosphorylated full-length human IRF-3 H288A/H290A/K313A (natural protein, UniProt Q14653 1-427, looked up)
chain: MGTPKPRILPWLVSQLDLGQLEGVAWVNKSRTRFRIPWKHGLRQDAQQEDFGIFQAWAEATGAYVPGRDKPDLPTWKRNFRSALNRKEGLRLAEDRSKDPHDPHKIYEFVNSGVGDFSQPDTSPDTNGGGSTSDTQEDILDELLGNMVLAPLPDPGPPSLAVAPEPCPQPLRSPSLDNPTPFPNLGPSENPLKRLLVPGEEWEFEVTAFYRGRQVFQQTISCPEGLRLVGSEVGDRTLPGWPVTLPDPGMSLTDRGVMSYVRHVLSCLGGGLALWRAGQWLWAQRLGACATYWAVSEELLPNSGHGPDGEVPADKEGGVFDLGPFIVDLITFTEGSGRSPRYALWFCVGESWPQDQPWTKRLVMVKVVPTCLRALVEMARVGGASSLENTVDLHISNSHPLSLTSDQYKAYLQDLVEGMDFQGPGES
modifications: phosphorylated in vitro by GST-mTBK1; the phosphorylated residues are not listed
B7: phosphorylated full-length human IRF-3 R285A/K313A (natural protein, UniProt Q14653 1-427, looked up)
chain: MGTPKPRILPWLVSQLDLGQLEGVAWVNKSRTRFRIPWKHGLRQDAQQEDFGIFQAWAEATGAYVPGRDKPDLPTWKRNFRSALNRKEGLRLAEDRSKDPHDPHKIYEFVNSGVGDFSQPDTSPDTNGGGSTSDTQEDILDELLGNMVLAPLPDPGPPSLAVAPEPCPQPLRSPSLDNPTPFPNLGPSENPLKRLLVPGEEWEFEVTAFYRGRQVFQQTISCPEGLRLVGSEVGDRTLPGWPVTLPDPGMSLTDRGVMSYVRHVLSCLGGGLALWRAGQWLWAQALGHCHTYWAVSEELLPNSGHGPDGEVPADKEGGVFDLGPFIVDLITFTEGSGRSPRYALWFCVGESWPQDQPWTKRLVMVKVVPTCLRALVEMARVGGASSLENTVDLHISNSHPLSLTSDQYKAYLQDLVEGMDFQGPGES
modifications: phosphorylated in vitro by GST-mTBK1; the phosphorylated residues are not listed
B8: phosphorylated full-length human IRF-3 H290A/K313A (natural protein, UniProt Q14653 1-427, looked up)
chain: MGTPKPRILPWLVSQLDLGQLEGVAWVNKSRTRFRIPWKHGLRQDAQQEDFGIFQAWAEATGAYVPGRDKPDLPTWKRNFRSALNRKEGLRLAEDRSKDPHDPHKIYEFVNSGVGDFSQPDTSPDTNGGGSTSDTQEDILDELLGNMVLAPLPDPGPPSLAVAPEPCPQPLRSPSLDNPTPFPNLGPSENPLKRLLVPGEEWEFEVTAFYRGRQVFQQTISCPEGLRLVGSEVGDRTLPGWPVTLPDPGMSLTDRGVMSYVRHVLSCLGGGLALWRAGQWLWAQRLGHCATYWAVSEELLPNSGHGPDGEVPADKEGGVFDLGPFIVDLITFTEGSGRSPRYALWFCVGESWPQDQPWTKRLVMVKVVPTCLRALVEMARVGGASSLENTVDLHISNSHPLSLTSDQYKAYLQDLVEGMDFQGPGES
modifications: phosphorylated in vitro by GST-mTBK1; the phosphorylated residues are not listed
B9: phosphorylated full-length human IRF-3 H288A (natural protein, UniProt Q14653 1-427, looked up)
chain: MGTPKPRILPWLVSQLDLGQLEGVAWVNKSRTRFRIPWKHGLRQDAQQEDFGIFQAWAEATGAYVPGRDKPDLPTWKRNFRSALNRKEGLRLAEDRSKDPHDPHKIYEFVNSGVGDFSQPDTSPDTNGGGSTSDTQEDILDELLGNMVLAPLPDPGPPSLAVAPEPCPQPLRSPSLDNPTPFPNLGPSENPLKRLLVPGEEWEFEVTAFYRGRQVFQQTISCPEGLRLVGSEVGDRTLPGWPVTLPDPGMSLTDRGVMSYVRHVLSCLGGGLALWRAGQWLWAQRLGACHTYWAVSEELLPNSGHGPDGEVPKDKEGGVFDLGPFIVDLITFTEGSGRSPRYALWFCVGESWPQDQPWTKRLVMVKVVPTCLRALVEMARVGGASSLENTVDLHISNSHPLSLTSDQYKAYLQDLVEGMDFQGPGES
modifications: phosphorylated in vitro by GST-mTBK1; the phosphorylated residues are not listed
B10: phosphorylated full-length human IRF-3 S396A (natural protein, UniProt Q14653 1-427, looked up)
chain: MGTPKPRILPWLVSQLDLGQLEGVAWVNKSRTRFRIPWKHGLRQDAQQEDFGIFQAWAEATGAYVPGRDKPDLPTWKRNFRSALNRKEGLRLAEDRSKDPHDPHKIYEFVNSGVGDFSQPDTSPDTNGGGSTSDTQEDILDELLGNMVLAPLPDPGPPSLAVAPEPCPQPLRSPSLDNPTPFPNLGPSENPLKRLLVPGEEWEFEVTAFYRGRQVFQQTISCPEGLRLVGSEVGDRTLPGWPVTLPDPGMSLTDRGVMSYVRHVLSCLGGGLALWRAGQWLWAQRLGHCHTYWAVSEELLPNSGHGPDGEVPKDKEGGVFDLGPFIVDLITFTEGSGRSPRYALWFCVGESWPQDQPWTKRLVMVKVVPTCLRALVEMARVGGASSLENTVDLHIANSHPLSLTSDQYKAYLQDLVEGMDFQGPGES
modifications: phosphorylated in vitro by GST-mTBK1; the phosphorylated residues are not listed

One series deals with the molecule itself. As to the kind of experiment: SEC. A general note: Size exclusion chromatography separates by hydrodynamic size, large species first.
Take B1: the binding result is “binds”.
The same measure, in the same setting: the value for B2 was “binds”; that for B3 was “binds”; that for B4 was “binds”.
The same measure, in the same setting: the value for B5 was “binds”; that for B6 was “binds”; that for B7 was “binds”.
For B8, the binding result is recorded as “binds”.
As to B9, the binding result is “binds”.

The next series deals with the molecule itself. Kind of series: native gel or EMSA.
For the protein B10, the binding result is “binds”.
